Two molecules from patent US11370833B2, “Antibody formulations” (Genentech, Inc., priority 2014, dated 2022) can be followed below.

What all share (type): physicochemical
Data set [1] can be described thus: FT-NIR trehalose crystallization after frozen storage (freeze rate and storage temperature studies). The procedure: To prepare the samples for slow and normal freezing, two milliliter sample aliquots were dispensed into autoclaved 5 cc glass vials and sealed with 20 mm Lyo-Stoppers using aseptic technique in a ventilated biosafety hood with laminar air flow. Slow freezing was accomplished by placing sample vials in a lyophilizer on pre-cooled shelves and held between −1° C. and −3° C. for 24 hours.
(§1) Normal freezing was accomplished by placing sample vials in a freezer at −20° C. until samples were completely frozen. To control for supercooling, ice was nucleated by applying frozen CO2 to the side of each vial until ice formation.
(§2) Fast freezing was accomplished by quench cooling fifty microliter sample aliquots drop-wise into liquid nitrogen. The freezing endpoint was determined by the increased opacity and the sinking of the sphere from the surface into a stainless steel mesh collection basket. After freezing, one-milliliter aliquots of bulk drug substance frozen pellets were removed from the liquid nitrogen and transferred into sterile, pre-chilled 5 cc glass vials. The vials were then stored on frozen CO2, and sealed with 20 mm Lyo-Stoppers. The formulation screen samples were fast frozen in 96-well microplates using liquid nitrogen. Immediately after the microplates were frozen, the samples were nucleated by scratching the ice surface with a 24 gauge needles (BD, Franklin Lakes, N.J.).
Samples frozen at the three freeze rates (slow, normal, and fast) by the methods described were transferred to three freezer units with set points of −20° C., −14° C., and −8° C. with a range of ±2° C. for frozen storage. The freezer temperature was monitored using a Yokogawa temperature monitoring system (Yokogawa Meters and Instruments Corporation, Tokyo, Japan). Sample vials were pulled after 0, 1, 2, 3, 6, 9 and 12 months of isothermal, frozen storage and placed on the lab counter bench under ambient conditions (approximately 22° C.) and allowed to thaw prior to analysis.
Samples intended for trehalose crystallization determination were first freeze-dried using a LyoStar II lyophilizer unit controlled by LyoManager II software (FTS Systems, Stone Ridge, N.Y.). The frozen samples were placed on a pre-cooled shelf and held at −35° C. for 7 hours prior to primary drying. Primary drying was achieved under a system pressure of 150 μm Hg by linearly increasing the shelf temperature to 20° C. at a rate of 0.2° C./min, followed by a 40 hour hold at 20° C. Secondary drying was performed by linearly increasing shelf temperature to 30° C. at 0.2° C./min, followed by an 8 hour hold at 30° C. Thermocouples were placed in various sample vials to monitor temperature during freeze-drying. Following secondary drying, sample vials were stoppered while still under vacuum to prevent samples from hydrating prior to analysis. Low volume (300 microliter), formulation screen samples were lyophilized in 96-well glass plates (Zinsser, Germany) using the same lyophilization method.
The percent trehalose crystallization was determined using near infrared diffuse reflectance spectroscopy. Data collection, calibration, and analysis methods used in this study were adapted from previous work focused on characterizing the spectral differences between amorphous trehalose and crystalline trehalose polymorphs (Connolly, B., et al. (2010) Anal. Biochem. 399(1):48-57). Using these methods, sample NIR spectra were recorded from 10,000-4,000 cm^−1 using 32 averaged scans with 4 cm^−1 resolution on a Nicolet Antaris FT-Near IR Analyzer equipped with an integrating sphere module (Thermo Fisher Scientific, Waltham, Mass.). Percent trehalose crystallization was calculated using normalized peak intensity ratios of bands at 4306 cm^−1 and 4291 cm^−1 (Connolly, B., et al. (2010) Anal. Biochem. 399(1):48-57). Data analysis was conducted using a linear regression analysis with MATLAB (R2007a, The MathWorks, Natick, Massachussetts) (Connolly, B., et al. (2010) Anal. Biochem. 399(1):48-57). […]

Data set [2] in a line: Formulation composition study: FT-NIR percent trehalose crystallization. Conditions: trehalose 34.2% (wt/v), fast frozen, 12 months at −20° C. Here is the method: as §2
The formulation screen sample microplates were stored at two temperatures (−20±2° C., and −40±2° C.). The freezer temperature was monitored using a Yokogawa temperature monitoring system (Yokogawa Meters and Instruments Corporation, Tokyo, Japan).
Sample microplates for SEC analysis were stored isothermally for up to 365 days. Following frozen storage, microplates were thawed on the lab counter bench under ambient conditions (approximately 22° C.) prior to analysis. Control (0 day) samples were thawed immediately following completion of the freezing process. […]
The percent trehalose crystallization was determined using near infrared diffuse reflectance spectroscopy. […] Using these methods, sample NIR spectra were recorded from 10,000-4,000 cm^−1 using 32 averaged scans with 4 cm^−1 resolution on a Nicolet Antaris FT-Near IR Analyzer equipped with an integrating sphere module (Thermo Fisher Scientific, Waltham, Mass.). Percent trehalose crystallization was calculated using normalized peak intensity ratios of bands at 4306 cm^−1 and 4291 cm^−1 (Connolly, B., et al. (2010) Anal. Biochem. 399(1):48-57). […] Low volume (300 microliter) formulation screen samples were lyophilized and then analyzed for percent trehalose crystallization using the same method.

Data set [3] is described as follows: Visual trehalose crystallization in frozen trehalose solutions with pH indicating dye. Conditions: 2.0, 4.0 and 8.0% (wt/v) trehalose, 20 mM histidine-acetate pH 5.5; normal freeze rate, −20° C. for 6 days. Here is the method:
Additional solutions were prepared with 0.0, 2.0, 4.0, and 8.0% (wt/v) trehalose in 20 mM histidine-acetate, at pH 5.5, and Water for Injection. Fifty microliters of pHydrion (pH Range: 0-7) pH-indicator dye (Micro Essential Laboratory, NY) was dispensed into a 10 cc glass vial and allowed to evaporate. Approximately four milliliters of the various trehalose formulations were added to the vial and the dye was allowed to dissolve in the solution. Photographs of frozen trehalose solutions were obtained using an Olympus Stylus 770SW digital camera (Olympus America Inc., NJ) in supermacro mode.
as §1
It is of significant interest to understand if trehalose crystallization impacts protein stability at pharmaceutically relevant (≤10% wt/v) concentrations. To evaluate the impact of nominal trehalose concentration on excipient crystallization, solutions were prepared with 0.0, 2.0, 4.0 and 8.0% (wt/v) trehalose dihydrate in the presence of pH indicating dye to better visualize crystallization. The samples were frozen using the normal freeze rate and stored at −20° C. for 6 days.

Data set [4] can be described thus: Turbidity analysis and visual inspection for precipitates. Conditions: fast freeze samples. Here is the method:
The turbidity of the samples was measured by recording the average absorbance from 340-360 nm in a quartz cuvette with 1-cm path length (Eckhardt, B. M., et al. (1991) Pharm. Res. 8:1360-4) on an HP8453 spectrophotometer using Chemstation software (Agilent Technologies, Santa Clara, Calif.). Sterile water for injection was used to blank the instrument prior to analyses. Turbidity analysis of formulation screen samples was performed on a UV transparent, Corning half area, 96-well microplate using Spectramax M2 instrument (Molecular Devices, Sunnyvale). The turbidity was measured against a Sterile Water for Injection blank and the turbidity value measured by recording the average of the absorbance from 340-360 nm.

Where [5] appears, read: Fast freeze, 12 months frozen storage at −8° C.
[6] abbreviates: Fast freeze, 12 months frozen storage at −14° C.
Setting [7] is: Fast freeze, 12 months frozen storage at −20° C.
The mark [8] stands for this setting: Normal freeze, 12 months frozen storage at −8° C.
The mark [9] stands for this setting: Normal freeze, 12 months frozen storage at −14° C.
Where [10] appears, read: Normal freeze, 12 months frozen storage at −20° C.
Setting [11] is: Slow freeze, 12 months frozen storage at −8° C.
The mark [12] stands for this setting: Slow freeze, 12 months frozen storage at −14° C.
Setting [13] is: Slow freeze, 12 months frozen storage at −20° C.

As to `OC[C@H]1O[C@H](O[C@H]2O[C@H](CO)[C@@H](O)[C@H](O)[C@H]2O)[C@H](O)[C@@H](O)[C@@H]1O` [trehalose], the “time at which trehalose crystallization reaches a plateau” value in data set [1] (frozen storage, data not shown) is no more than 2 weeks. The molecule further showed a percent crystallized trehalose in data set [2] ([bevacizumab]=0 mg/mL) of 86%. Further, in data set [3], the “visual trehalose crystallization after induced nucleation” value is recorded as “visually observed”.

For the molecule “Bevacizumab: recombinant humanized anti-VEGF IgG1 monoclonal antibody; 25 mg/mL in 5.4% trehalose, 51 mM sodium phosphate pH 6.2, 0.04% polysorbate 20”, the “trehalose crystallization by FT-NIR, fast freeze samples” value in data set [1] (12 month samples, fast freeze) was “measurable amounts of trehalose crystallization”. In data set [1] (12 month samples, slow and normal freeze), the “trehalose crystallization by FT-NIR, slow and normal freeze samples” value is listed as “no measurable amounts of trehalose crystallization”. Further, the “Amorphous Trehalose” value in data set [1] (setting [5]) is given as 3.8 % wt/v; in data set [1] (setting [6]), 2.9 % wt/v; in data set [1] (setting [7]), 3.0 % wt/v; in data set [1] (setting [8]), 5.2 % wt/v; in data set [1] (setting [9]), 5.1 % wt/v; in data set [1] (setting [10]) it was 5.1 % wt/v. In addition, the “Amorphous Trehalose” value in data set [1] (setting [11]) came out at 5.2 % wt/v; in data set [1] (setting [12]), 5.2 % wt/v; in data set [1] (setting [13]) it was 5.1 % wt/v. Further, the “Crystallized Trehalose” value is recorded as 1.6 % wt/v in data set [1] (setting [5]); 2.5 % wt/v in data set [1] (setting [6]); 2.5 % wt/v in data set [1] (setting [7]); 0.3 % wt/v in data set [1] (setting [8]); 0.3 % wt/v in data set [1] (setting [9]); 0.3 % wt/v in data set [1] (setting [10]). The “Crystallized Trehalose” value in data set [1] (setting [11]) is listed as 0.2 % wt/v; in data set [1] (setting [12]) it was 0.3 % wt/v; in data set [1] (setting [13]), 0.3 % wt/v. Moreover, the percent crystallized trehalose is given as 61% in data set [2] ([bevacizumab]=25 mg/mL) and 47% in data set [2] ([bevacizumab]=100 mg/mL). In addition, the “precipitates by turbidity analysis and visual inspection” value in data set [4] was “formation of precipitates”.
